Article PMC2894018 (2010)

B1: HIV-1 Vpr from NL43 (Vpr^wt) fused to the N- or C-terminal fragment of Venus [HIV-1 (NL43)] / itself (parent complex)
chain: MEQAPEDQGPQREPYNEWTLELLEELKSEAVRHFPRIWLHNLGQHIYETYGDTWAGVEAIIRILQQLLFIHFRIGCRHSRIGVTRQRRARNGASRS

Variants of: B1
Assay: BiFC (bimolecular fluorescence complementation), flow cytometry on cells; cells cotransfected with VC and VN fusions of the same Vpr mutant; vector control 0.1; parent: 35.7

First: chain 1 L68E
Second: chain 1 A30L
The response of the first is lower: 1.03 % BiFC positive cells for the first, 1.19 % BiFC positive cells for the second.

For chain 1 H71R, the response was 1.65 % BiFC positive cells.
